The series deals with RadA recombinase (Pyrococcus abyssi, UniProt Q9V233 1-353). The series is described as follows: EMSA; no ATP; 25 nM ssDNA, RadA 0-6.4 uM; 20 mM Tris-HCl pH 8.0, 50 ug/mL BSA, 2 mM DTT, 0.5% Triton, 65 C, 10 min; 0.75% native agarose gel. The following applies: protein: recombinant; tags: none (untagged); label: 5' HiLyte Fluor 647; single strand.
Sequence of RadA recombinase (Q9V233 whole entry): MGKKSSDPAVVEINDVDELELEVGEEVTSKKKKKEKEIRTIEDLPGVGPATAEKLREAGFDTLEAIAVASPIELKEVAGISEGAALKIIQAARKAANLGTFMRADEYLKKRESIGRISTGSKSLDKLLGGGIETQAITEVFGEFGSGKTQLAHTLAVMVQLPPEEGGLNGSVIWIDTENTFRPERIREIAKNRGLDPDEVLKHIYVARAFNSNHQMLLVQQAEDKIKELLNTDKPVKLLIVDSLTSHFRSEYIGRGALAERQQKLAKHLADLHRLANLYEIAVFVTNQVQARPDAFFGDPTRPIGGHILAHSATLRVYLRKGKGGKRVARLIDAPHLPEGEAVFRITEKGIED

B1: L93-5'HL 647 (93-mer ssDNA) (ssDNA)
DNA: AAAGGCGGTAATACGGTTATCCACAGAATCAGGGGATAACGCAGGAAAGAACATGTGAGCAAAAGGCCAGCAAAAGGCCAGGAACCGTAAAAA
On to B1, for which the binding result is “binds”.
